We go through 2 molecules from PMC8354235 (Journal of Virology, 2021).

Values joined by “and” are separate entries in the source; they are usually repeats but may differ in a detail not shown here. Equal values may be shown once.

For experiment [1], the target named is T1, histidine-tagged soluble extracellular domain of human transferrin receptor 1 (sTfR1) from BHK cells (human, UniProt P02786).
T1 construct: also called hTfR1; sTfR1-His
The experiment in a line: ELISA. As to conditions: both partners purified. On the technique in general: ELISA stands for enzyme-linked immunosorbent assay.

Experiment [2] addresses T1, histidine-tagged soluble extracellular …. The experiment in a line: BLI. The conditions noted are these: both partners purified.

T1 sequence (P02786 89-760): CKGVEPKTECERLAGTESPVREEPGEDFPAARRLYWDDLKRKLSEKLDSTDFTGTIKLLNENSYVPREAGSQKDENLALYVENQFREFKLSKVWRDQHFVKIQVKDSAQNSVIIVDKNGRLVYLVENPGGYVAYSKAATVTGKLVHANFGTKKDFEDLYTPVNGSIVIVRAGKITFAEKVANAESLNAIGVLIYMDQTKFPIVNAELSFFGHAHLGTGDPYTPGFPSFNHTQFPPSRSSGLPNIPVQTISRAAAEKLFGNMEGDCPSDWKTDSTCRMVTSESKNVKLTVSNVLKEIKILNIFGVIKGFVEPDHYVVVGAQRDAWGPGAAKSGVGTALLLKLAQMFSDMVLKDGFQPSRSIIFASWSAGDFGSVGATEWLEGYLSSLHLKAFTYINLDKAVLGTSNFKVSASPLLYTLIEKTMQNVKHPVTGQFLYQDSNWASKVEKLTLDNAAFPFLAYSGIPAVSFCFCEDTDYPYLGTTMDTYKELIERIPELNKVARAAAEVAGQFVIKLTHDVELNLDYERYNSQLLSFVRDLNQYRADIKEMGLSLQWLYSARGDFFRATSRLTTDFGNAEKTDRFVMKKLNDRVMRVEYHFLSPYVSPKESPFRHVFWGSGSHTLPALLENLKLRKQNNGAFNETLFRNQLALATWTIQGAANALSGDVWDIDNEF

B1: OKT9 antigen binding fragment (OKT9-Fab) (Fab, V domains shown)
VH: QIQLQQSGPELVKPGTSMNISCKASGYTFTNYYMHWVRQRPGQGLEWIGWIYPGDGNTHYNEKFKGKTTLTADTSSITAYMLLSSLTSEDSAVYFCARDNSGYVGFPYWGQGTLVTVSA
VL: DIVMTQSPSSLTVTAGERVTMSCKSSQSLFNSANQENYLTWYQQRPGQPPKLLIYWASTRDSGVPDRFTGSGSGTDFTLTISSVQAEDLAVYYCQNDYSYPLTFGAGTKLELK
notes: also called Fab OKT9; OKT9 variable region
What is called EC50 is the midpoint of the concentration-response curve. The low end stands for an effect from little substance, the high end for a need for much substance. By Kd is commonly meant the concentration at which binding is half-saturated. By koff is commonly meant the first-order rate constant of dissociation. Read a low koff as slow dissociation. As to B1, the concentration giving a half-maximal response (EC50) in experiment [1] is 3.69 nM and ~3.66 nM. For the same molecule, in experiment [2], the Kd is 4.9 nM and 4.78 nM and 4.76 nM and 4.82 nM; the off-rate (koff) is 0.0012 s⁻¹ and 0.00125 s⁻¹ and 0.00114 s⁻¹.

B2: murine monoclonal antibody OKT9 (full-length IgG1) (antibody, V domains shown)
VH: B1 VH
VL: B1 VL
notes: also called full-length OKT9
In experiment [1], B2 had an EC50 of 0.411 nM.
